# From paper PMC6197697, “Rice transcription factor OsMADS25 modulates root growth and confers salinity tolerance via the ABA–mediated regulatory pathway and ROS scavenging”
# B1: OsP5CR P2 probe (dsDNA)
# DNA 1: CGACGAATCCATTCATATATTTGTAGGGGCAGCGG
# DNA 2: CCGCTGCCCCTACAAATATATGAATGGATTCGTCG
# B2: OsP5CR P1 probe (dsDNA)
# DNA 1: CAGAGGGCATTCTCCCTAATAAGGCAGATACCTCCG
# DNA 2: CGGAGGTATCTGCCTTATTAGGGAGAATGCCCTCTG
# Tests used:
# [1] = biological target: T1, His-OsMADS25 (Oryza sativa, UniProt Q84NC5 1-227); experiment: EMSA; 5 mM Mg2+; competition stated to confirm specificity; 10 mM Tris pH 7.5, 50 mM KCl, 1 mM DTT, 2.5% glycerol, 5 mM MgCl2, 0.05% NP-40, 50 ng/ul poly(dI-dC), 30 ng protein, 400 fmol probe in 20 ul, 25 C 20 min (final values calculated from stocks); details: protein: recombinant; tags: His (pET32a fusion); chain copies: 2; label: biotin 3' end; blunt
# [2] = biological target: T1, His-OsMADS25; experiment: EMSA; 5 mM Mg2+; 10 mM Tris pH 7.5, 50 mM KCl, 1 mM DTT, 2.5% glycerol, 5 mM MgCl2, 0.05% NP-40, 50 ng/ul poly(dI-dC), 30 ng protein, 400 fmol probe in 20 ul, 25 C 20 min (final values calculated from stocks); details: protein: recombinant; tags: His (pET32a fusion); chain copies: 2; label: biotin 3' end; blunt
# T1 sequence (Q84NC5 whole entry, the tested form may be a part): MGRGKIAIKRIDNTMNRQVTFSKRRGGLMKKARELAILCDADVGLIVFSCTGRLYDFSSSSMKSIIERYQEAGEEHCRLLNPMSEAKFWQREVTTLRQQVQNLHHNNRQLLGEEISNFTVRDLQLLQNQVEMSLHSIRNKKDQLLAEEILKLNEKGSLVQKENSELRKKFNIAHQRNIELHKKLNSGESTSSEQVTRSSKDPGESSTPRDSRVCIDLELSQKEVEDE
Binder,binding result [1],binding result [2]
B1,binds,–
B2,–,no binding
